Measurements: paper PMC5795786 (Genes & Development, 2017)
Blank lines part the entries; values can stand above or below the binder they belong to.

B1: GST-Fkh1 (natural protein, S. cerevisiae (budding yeast), UniProt P40466 1-484, looked up)
chain: MSVTSREQKFSGKYSSYTAQDRQGLVNAVTCVLSSSSDPVAVSSDYSNSLSIAREVNAYAKIAGCDWTYYVQKLEVTIGRNTDSLNLNAVPGTVVKKNIDIDLGPAKIVSRKHAAIRFNLESGSWELQIFGRNGAKVNFRRIPTGPDSPPTVLQSGCIIDIGGVQMIFILPEQETIISDYCLNHLMPKLLSTYGTNGNNNPLLRNIIEGSTYLREQRLQEEARLQQLDHLHTPLSSSSDVNPIGDPHGDTIMMEEDEEDENYTRGGIRPNTYTSSSNNAVTNGNVPHIENPSDLSLDENRYIKPPQSYASMITQAILSTPEGSISLADIYKFISDNYAFYRFSQMAWQNSVRHNLSLNKAFEKVPKRAGQQGKGMNWKISDEVRRDFLNKWNAGKLSKIRRGASVTRQLQLHMSKFGEIPAPESSSIDPRGIKAQKVKKSLQATSSILGESAPQLQRTQLTGQISTTTSMDVTTNANVNNSSLS
B4: His6-Sld3 (natural protein, S. cerevisiae (budding yeast), UniProt P53135 1-668, looked up)
chain: METWEVIASVKEATKGLDLSLDHPLIIKSEDVPSNILQLLQQKNRRQLKHICMKSRKEYFLLEEYGPGFWVKWPYNYFNGYSLPERRTEVVTTVERERAKRETLKTWDELKFKELLHLWSEEPKGSCKLEKDKDLKLDMNPPDMKGESKINDYYSDPKEYIESKYYDALFSIHTPLAYFVKSNLVRLKNTCRTKYGSDSYKIAYQAMLQKFLLSIVQFKDRHDNRLLLEPFSSPIADEKRKNCLTKFVIQDENKNSSTIADLCVVLKSREIKLQILLLLEIIGLNDLDWNFRDFEKKYKLKLKKRSLNLTKKGLVRRRSKKKTSEKDKGIERITTSLDYCEQLDLYLDRACILDILLSSETPNPDAIEASNGTIQEHKKNILDKSKEASLVGFINYVLIPYFNKKVPHAVEFIIQKLKGPSMRPKRALKKVNDSTNVSSPNTVETYNRLSTSQRASRSSIINSVPSSPALRRVDANLFSRKSIASPTPELLNSRTNSNLNEFLESETRSLKRPSQLGRTKSDLTMNHLQKRQFSVSDLSTTRVPNSSTITLKTPFSHSTINAYKTMNNSFRRVGKRKDINETIRLHERVDSEENVQVQATPAVKKRTVTPNKKAQLQSIIESPLNFKDDDTHEGRKNTSNITSTPTNKPPENSSKRRVRRRLFAPEST

Tests used:
[1] = target: T1, Phosphatase-treated Dbf4 purified from yeast cells (S. cerevisiae (endogenous in yeast), UniProt P32325 1-704, treated with λ-phosphatase); experiment: pull-down
T1 sequence (looked up): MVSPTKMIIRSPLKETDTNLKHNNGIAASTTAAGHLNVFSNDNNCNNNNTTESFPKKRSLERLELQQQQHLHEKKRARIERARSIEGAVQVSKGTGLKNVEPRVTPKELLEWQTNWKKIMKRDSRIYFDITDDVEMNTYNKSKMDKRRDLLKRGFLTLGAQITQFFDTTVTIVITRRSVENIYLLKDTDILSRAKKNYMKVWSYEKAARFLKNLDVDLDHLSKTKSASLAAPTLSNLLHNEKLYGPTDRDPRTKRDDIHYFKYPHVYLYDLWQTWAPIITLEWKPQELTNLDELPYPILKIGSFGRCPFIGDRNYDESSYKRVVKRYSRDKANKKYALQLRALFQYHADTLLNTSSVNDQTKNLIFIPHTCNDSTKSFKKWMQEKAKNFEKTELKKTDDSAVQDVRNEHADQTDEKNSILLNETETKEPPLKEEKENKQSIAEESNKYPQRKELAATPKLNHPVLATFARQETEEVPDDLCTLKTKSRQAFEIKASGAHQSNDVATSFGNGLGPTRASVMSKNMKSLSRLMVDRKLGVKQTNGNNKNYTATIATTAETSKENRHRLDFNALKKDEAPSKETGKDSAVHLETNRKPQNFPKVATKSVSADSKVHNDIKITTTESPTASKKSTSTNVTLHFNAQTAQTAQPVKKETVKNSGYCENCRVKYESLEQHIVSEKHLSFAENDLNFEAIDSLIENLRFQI

[2] = target: T2, Purified recombinant Dbf4 (6His-Dbf4p, pET28a-Dbf4) (S. cerevisiae (budding yeast), UniProt P32325 1-704); experiment: in vitro origin recruitment assay on DNA beads
T2 sequence (looked up): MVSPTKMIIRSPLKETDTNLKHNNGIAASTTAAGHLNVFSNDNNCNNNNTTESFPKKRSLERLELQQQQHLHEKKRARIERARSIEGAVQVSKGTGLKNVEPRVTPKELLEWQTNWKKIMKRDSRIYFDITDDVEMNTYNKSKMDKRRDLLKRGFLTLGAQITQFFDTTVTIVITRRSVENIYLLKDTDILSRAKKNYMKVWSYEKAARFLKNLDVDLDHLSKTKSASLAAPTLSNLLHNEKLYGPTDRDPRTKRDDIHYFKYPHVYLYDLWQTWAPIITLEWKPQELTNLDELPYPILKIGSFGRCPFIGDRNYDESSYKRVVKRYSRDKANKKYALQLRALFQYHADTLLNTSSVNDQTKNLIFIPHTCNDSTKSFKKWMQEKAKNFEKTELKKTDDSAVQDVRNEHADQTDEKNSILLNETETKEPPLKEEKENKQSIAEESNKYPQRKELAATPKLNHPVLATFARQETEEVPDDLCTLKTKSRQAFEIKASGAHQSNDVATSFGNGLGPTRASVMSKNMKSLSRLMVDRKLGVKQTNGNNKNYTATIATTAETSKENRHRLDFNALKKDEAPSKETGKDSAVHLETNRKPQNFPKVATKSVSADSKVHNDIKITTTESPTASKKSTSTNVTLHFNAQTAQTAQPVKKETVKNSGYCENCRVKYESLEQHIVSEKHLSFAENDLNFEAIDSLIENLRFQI

[3] = target: B1; experiment: pull-down
[4] = target: B4; experiment: pull-down
[5] = target: T3, GST-Dbf4 (S. cerevisiae (budding yeast), UniProt P32325 1-704); experiment: pull-down
T3 sequence (looked up): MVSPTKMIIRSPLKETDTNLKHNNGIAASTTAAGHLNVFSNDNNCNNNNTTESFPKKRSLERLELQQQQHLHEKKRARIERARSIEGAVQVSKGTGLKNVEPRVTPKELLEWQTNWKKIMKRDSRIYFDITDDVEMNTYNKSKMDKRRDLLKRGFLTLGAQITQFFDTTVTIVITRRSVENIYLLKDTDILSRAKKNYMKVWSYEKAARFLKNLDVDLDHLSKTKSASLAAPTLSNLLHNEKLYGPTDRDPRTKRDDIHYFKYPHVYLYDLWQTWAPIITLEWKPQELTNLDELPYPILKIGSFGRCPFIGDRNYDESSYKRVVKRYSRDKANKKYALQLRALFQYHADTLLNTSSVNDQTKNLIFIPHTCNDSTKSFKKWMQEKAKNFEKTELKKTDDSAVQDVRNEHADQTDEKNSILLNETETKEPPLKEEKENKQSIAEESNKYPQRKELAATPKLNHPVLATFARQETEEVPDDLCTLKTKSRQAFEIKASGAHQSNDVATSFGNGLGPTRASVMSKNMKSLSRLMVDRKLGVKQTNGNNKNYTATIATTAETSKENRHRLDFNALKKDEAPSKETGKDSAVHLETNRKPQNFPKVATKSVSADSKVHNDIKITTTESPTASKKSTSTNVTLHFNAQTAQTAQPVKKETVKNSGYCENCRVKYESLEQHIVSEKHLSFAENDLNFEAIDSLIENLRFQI

Binder: B1
binding result [1]: binds

binding result [2]: binds
B2: Purified recombinant Fkh1 (in vitro recruitment assay) (natural protein, S. cerevisiae (budding yeast), UniProt P40466 1-484, looked up)
chain: MSVTSREQKFSGKYSSYTAQDRQGLVNAVTCVLSSSSDPVAVSSDYSNSLSIAREVNAYAKIAGCDWTYYVQKLEVTIGRNTDSLNLNAVPGTVVKKNIDIDLGPAKIVSRKHAAIRFNLESGSWELQIFGRNGAKVNFRRIPTGPDSPPTVLQSGCIIDIGGVQMIFILPEQETIISDYCLNHLMPKLLSTYGTNGNNNPLLRNIIEGSTYLREQRLQEEARLQQLDHLHTPLSSSSDVNPIGDPHGDTIMMEEDEEDENYTRGGIRPNTYTSSSNNAVTNGNVPHIENPSDLSLDENRYIKPPQSYASMITQAILSTPEGSISLADIYKFISDNYAFYRFSQMAWQNSVRHNLSLNKAFEKVPKRAGQQGKGMNWKISDEVRRDFLNKWNAGKLSKIRRGASVTRQLQLHMSKFGEIPAPESSSIDPRGIKAQKVKKSLQATSSILGESAPQLQRTQLTGQISTTTSMDVTTNANVNNSSLS

binding result [3]: binds
Binder: KNSGYCENCRVKYESLEQHIVSEKHLSFAENDLNFEAIDSLIENLRFQI (domain or fragment, S. cerevisiae (budding yeast), UniProt P32325 656-704, looked up) [6His-Dbf4 (656-704)]

binding result [4]: binds
B3: GST-Dbf4 (1-390) (domain or fragment, S. cerevisiae (budding yeast), UniProt P32325 1-390, looked up)
chain: MVSPTKMIIRSPLKETDTNLKHNNGIAASTTAAGHLNVFSNDNNCNNNNTTESFPKKRSLERLELQQQQHLHEKKRARIERARSIEGAVQVSKGTGLKNVEPRVTPKELLEWQTNWKKIMKRDSRIYFDITDDVEMNTYNKSKMDKRRDLLKRGFLTLGAQITQFFDTTVTIVITRRSVENIYLLKDTDILSRAKKNYMKVWSYEKAARFLKNLDVDLDHLSKTKSASLAAPTLSNLLHNEKLYGPTDRDPRTKRDDIHYFKYPHVYLYDLWQTWAPIITLEWKPQELTNLDELPYPILKIGSFGRCPFIGDRNYDESSYKRVVKRYSRDKANKKYALQLRALFQYHADTLLNTSSVNDQTKNLIFIPHTCNDSTKSFKKWMQEKAKNFE

Binder: B4
binding result [5]: binds
